# Data: IntAct's records for PubMed 16272220
# Columns and labels:
# trx2_yeast TRX2 = molecular target: T1, trx2_yeast TRX2 (UniProt P22803)
# T1 sequence: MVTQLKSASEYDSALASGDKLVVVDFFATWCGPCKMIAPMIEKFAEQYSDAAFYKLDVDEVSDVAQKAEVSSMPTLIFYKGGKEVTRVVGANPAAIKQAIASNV
# trx1_yeast TRX1 = molecular target: T2, trx1_yeast TRX1 (UniProt P22217)
# T2 sequence: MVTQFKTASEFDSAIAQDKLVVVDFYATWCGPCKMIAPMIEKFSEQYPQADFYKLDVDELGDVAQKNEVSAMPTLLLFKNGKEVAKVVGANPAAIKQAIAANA
substance,measurement,setting,value
Phosphoadenosine phosphosulfate reductase (Saccharomyces cerevisiae) (from UniProt P18408) C245S,effect of a mutation on the interaction,trx2_yeast TRX2,decreasing interaction
same,effect of a mutation on the interaction,trx1_yeast TRX1,decreasing interaction
